The values below come from article PMC10748205.

Common to all, as to experiment: two-hybrid
The target in assay [1] is Gt-1 ORF3 MAPPIT (hepatitis E virus genotype 1 (Sar-55)).
In assay [2] the target is Gt-3 ORF3 KISS (hepatitis E virus genotype 3 (Kernow-C1 p6)).
For assay [3], the target named is Gt-1 ORF3 KISS (hepatitis E virus genotype 1 (Sar-55)).

B1: SHANK-Associated RH Domain Interactor (natural protein)
chain: MAPPAGGAAAAASDLGSAAVLLAVHAAVRPLGAGPDAEAQLRRLQLSADPERPGRFRLELLGAGPGAVNLEWPLESVSYTIRGPTQHELQPPPGGPGTLSLHFLNPQEAQRWAVLVRGATVEGQNGSKSNSPPALGPEACPVSLPSPPEASTLKGPPPEADLPRSPGNLTEREELAGSLARAIAGGDEKGAAQVAAVLAQHRVALSVQLQEACFPPGPIRLQVTLEDAASAASAASSAHVALQVHPHCTVAALQEQVFSELGFPPAVQRWVIGRCLCVPERSLASYGVRQDGDPAFLYLLSAPREAPATGPSPQHPQKMDGELGRLFPPSLGLPPGPQPAASSLPSPLQPSWSCPSCTFINAPDRPGCEMCSTQRPCTWDPLAAAST
With B1, in assay [1], the BP/BIP was determined as 61.2, the BP/PIB is 69.9 and the Value BP (bait-prey fold induction) is 82.1. In assay [2], this molecule came in with a BP/BIP of 25.4, a BP/PIB of 101 and a Value BP (bait-prey luciferase value) of 188000. In assay [3], this molecule yielded a BP/BIP of 42.2, a BP/PIB of 429 and a Value BP (bait-prey luciferase value) of 796000.
